Experimental data from US20180094062A1 (Hoffmann-La Roche, published 2018).
Numbering of substitutions follows the chain as printed. Each block holds one binder with its values, some of them ahead of it.

Assays:
TtSlyDcys-Her3 = molecular target: T1, TtSlyDcys-Her3; experiment: ELISA, antigen coated, hybridoma supernatant
T1 chain: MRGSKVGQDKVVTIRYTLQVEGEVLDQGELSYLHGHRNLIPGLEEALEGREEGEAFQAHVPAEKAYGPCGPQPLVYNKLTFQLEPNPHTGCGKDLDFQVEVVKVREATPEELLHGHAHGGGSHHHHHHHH
Protocol: For the ELISA screening an antigen down format was used. […] Hybridoma Supernatant was added to the plates and incubated for 1 h at room temperature. Bound antibody was detected with a HRP-labeled F(ab′)₂ goat anti-mouse Fcγ (Dianova) and ABTS (Roche) was used as a HRP-substrate.
As negative controls the scaffold proteins TtSlyDcas and TgSlyDΔIF were used.

[1] = molecular target: T2, HER1, full length, on transfected HEK293 cells (human, UniProt P00533 25-1210); experiment: IHC on HEK293 cells transiently transfected with full length HER1; NC = untransfected cells
T2 construct: HEK293 transiently transfected with a plasmid coding for full length HER1; also called EGFR
Protocol: (§1) All selected clones were tested for reactivity and specificity in IHC. […] After an additional fixation in formalin overnight the Agarose blocks were embedded in paraffin. Untransfected HEK293 cells were used as negative controls and treated accordingly to the transfected cells. After paraffin embedding 3 μm thin sections were prepared using a microtome. The sections were mounted on glass microscopy slides and dried for 2 h. All further steps of the immunohistochemical staining procedure were carried out using a Ventana Benchmark XT. The slides were dewaxed and antigen retrieval was performed by applying heat for 1 hour. For antigen retrieval the Ventana buffer CC1 was used. The antibodies were used at a concentration of 1 μg/ml. For the detection of bound antibody the Ventana UltraView detection kit was used.

[2] = molecular target: HER2, full length, on cells (transfected HEK293, MCF7) (human, UniProt P04626 23-1255); experiment: IHC on HEK293 cells transiently transfected with full length HER2; NC = untransfected cells
Protocol: as §1

[3] = molecular target: HER4, full length, on transfected HEK293 cells (human, UniProt Q15303 26-1308); experiment: IHC on HEK293 cells transiently transfected with full length HER4; NC = untransfected cells
Protocol: as §1

TtSlyD-Wildtype = molecular target: T3, TtSlyD-Wildtype; experiment: SPR, antibody captured, 25 C
T3 construct: scaffold without insert; N-terminal methionine can be present or not; also called T.T.SlyD-wt; wild type Thermus thermophilus SlyD protein
T3 chain: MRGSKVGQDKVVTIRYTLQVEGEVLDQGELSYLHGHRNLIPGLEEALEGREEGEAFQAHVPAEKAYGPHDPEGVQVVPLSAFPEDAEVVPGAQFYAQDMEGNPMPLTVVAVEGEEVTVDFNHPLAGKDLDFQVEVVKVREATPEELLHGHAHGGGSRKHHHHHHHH

[4] = molecular target: T4, human Heregulin fragment (HRG) (human); experiment: SPR Biacore T200, antibody captured, 25 C
T4 construct: a 44 kDa homodimeric protein, expressed in FreeStyle 293-F cells; also called Heregulin beta (HRG)
T4 chain: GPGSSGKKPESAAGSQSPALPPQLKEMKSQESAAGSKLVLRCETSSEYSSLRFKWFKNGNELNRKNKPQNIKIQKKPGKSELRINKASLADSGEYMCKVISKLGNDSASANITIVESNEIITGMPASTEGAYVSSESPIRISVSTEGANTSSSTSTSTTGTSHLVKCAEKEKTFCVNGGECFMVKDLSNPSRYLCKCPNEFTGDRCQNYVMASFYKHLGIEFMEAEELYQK
Protocol: (§2) A Biacore T200 instrument (GE Healthcare) was mounted with a CM5 series sensor. The sensor was normalized in HBS-ET buffer (10 mM HEPES pH 7.4, 150 mM NaCl, 3 mM EDTA, 0.05% w/v Tween 20) according to the manufacturer's instructions. The sample buffer was the system buffer supplemented with 1 mg/ml CMD (Carboxymethyldextran, Sigma #86524). The system operated at 25° C. 6500 RU RAM-Fcγ (relative units of Fcγ-fragment RamlgG, GE Healthcare) were immobilized according to the manufacturer's instructions using amine coupling EDC/NHS chemistry on all four flow cells. The sensor was deactivated using 1M ethanolamine. […] Concentration dependent kinetics were measured. […] All analytes were injected for 5 min association time and 10 min dissociation time at 100 μl/min flow rate. The sensor capture system was regenerated by a 3 min injection at 10 μl/min of 10 mM glycine pH 1.7. Where possible kinetic data was evaluated using the Biacore T200 evaluation software.

[5] = molecular target: T5, HER4 ECD-HRG complex (Heregulin-complexed Her-4 ECD) (human, UniProt Q15303 26-651); experiment: SPR Biacore T200, antibody captured, 25 C
T5 construct: Her-4 ECD incubated with a 5-fold molar excess of Heregulin
T5 sequence 1: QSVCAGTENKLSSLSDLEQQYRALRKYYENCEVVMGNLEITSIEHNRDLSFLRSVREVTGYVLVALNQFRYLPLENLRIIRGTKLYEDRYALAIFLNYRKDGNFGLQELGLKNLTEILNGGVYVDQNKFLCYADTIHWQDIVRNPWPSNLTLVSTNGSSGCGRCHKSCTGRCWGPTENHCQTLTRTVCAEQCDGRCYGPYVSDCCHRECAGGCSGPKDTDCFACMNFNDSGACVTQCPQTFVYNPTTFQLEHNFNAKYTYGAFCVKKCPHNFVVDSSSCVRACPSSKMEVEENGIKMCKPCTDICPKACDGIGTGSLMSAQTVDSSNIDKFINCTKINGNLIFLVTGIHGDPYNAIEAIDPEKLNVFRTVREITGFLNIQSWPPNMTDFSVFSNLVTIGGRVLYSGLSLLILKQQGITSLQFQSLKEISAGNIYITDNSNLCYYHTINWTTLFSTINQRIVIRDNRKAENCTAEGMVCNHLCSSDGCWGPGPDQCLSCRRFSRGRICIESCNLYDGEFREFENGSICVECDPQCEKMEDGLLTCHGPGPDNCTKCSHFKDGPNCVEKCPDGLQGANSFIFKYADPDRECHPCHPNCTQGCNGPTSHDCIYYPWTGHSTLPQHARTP
T5 sequence 2: T4 chain
Protocol: as §2

Chain of HER4, full length, on transfected HEK293 cells (Q15303 26-1308): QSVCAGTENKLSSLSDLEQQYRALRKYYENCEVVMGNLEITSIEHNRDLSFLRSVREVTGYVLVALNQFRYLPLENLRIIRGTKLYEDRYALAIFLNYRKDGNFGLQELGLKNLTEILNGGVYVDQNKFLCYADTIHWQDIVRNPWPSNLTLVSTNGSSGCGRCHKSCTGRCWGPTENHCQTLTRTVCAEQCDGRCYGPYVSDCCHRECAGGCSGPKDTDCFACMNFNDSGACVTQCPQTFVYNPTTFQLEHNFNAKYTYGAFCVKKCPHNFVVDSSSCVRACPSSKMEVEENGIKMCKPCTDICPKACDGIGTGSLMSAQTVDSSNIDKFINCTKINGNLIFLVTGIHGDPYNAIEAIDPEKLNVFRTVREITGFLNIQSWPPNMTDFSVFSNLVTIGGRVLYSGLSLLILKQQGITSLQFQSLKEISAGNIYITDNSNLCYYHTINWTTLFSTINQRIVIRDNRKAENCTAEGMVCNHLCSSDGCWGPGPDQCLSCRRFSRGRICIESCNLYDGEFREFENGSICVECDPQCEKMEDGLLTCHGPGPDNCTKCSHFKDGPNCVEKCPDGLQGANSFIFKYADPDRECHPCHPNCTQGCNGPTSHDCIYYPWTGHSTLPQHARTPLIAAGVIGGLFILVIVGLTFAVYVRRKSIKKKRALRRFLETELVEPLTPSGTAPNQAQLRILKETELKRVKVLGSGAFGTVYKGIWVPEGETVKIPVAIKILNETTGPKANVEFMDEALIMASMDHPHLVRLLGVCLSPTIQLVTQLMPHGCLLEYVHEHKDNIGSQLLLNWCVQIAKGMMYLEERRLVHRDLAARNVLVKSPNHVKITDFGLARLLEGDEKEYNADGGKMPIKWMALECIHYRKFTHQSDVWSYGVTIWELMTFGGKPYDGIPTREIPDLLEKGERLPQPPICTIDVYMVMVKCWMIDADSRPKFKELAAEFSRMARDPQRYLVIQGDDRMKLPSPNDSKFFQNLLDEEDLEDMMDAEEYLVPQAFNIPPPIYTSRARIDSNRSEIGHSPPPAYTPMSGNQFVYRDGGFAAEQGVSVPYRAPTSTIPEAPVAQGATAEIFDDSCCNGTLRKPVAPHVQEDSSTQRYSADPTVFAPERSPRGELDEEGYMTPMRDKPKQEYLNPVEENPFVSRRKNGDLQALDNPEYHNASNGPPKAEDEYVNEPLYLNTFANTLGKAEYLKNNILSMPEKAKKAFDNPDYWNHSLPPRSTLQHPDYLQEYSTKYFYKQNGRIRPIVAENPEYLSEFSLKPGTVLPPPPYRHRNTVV

OD 405 nm (TtSlyDcys-Her3): 1.55 OD
binding result [1]: no binding
binding result [2]: no binding
binding result [3]: no binding
B1: anti-HER3 antibody M-17-02 (antibody, V domains shown)
VH: EVQLQQSGTVLARPGASVKMSCKASGYSFTSYWIHWVKQRPGQGLEWIGAIYPGNSDTTYNQKFKGKAKLTAVTSASTAYMELSSLTNEDSAVYYCARTGVWTSYYFDYWGQGTTLTVSS
VL: DIQMTQSPASLSASVGETVTITCRASENIYSNLAWYQQKQGKSPQLLVYAATNLADGVPSRFSGSGSGTQFSLRINSLQPEDFGSYYCQHFYGTPFTFGTGTKLEIK
notes: mouse hybridoma clone

binding result (TtSlyD-Wildtype): no binding
binding result [4]: no binding (tested: 450 nM)
binding result [5]: no binding (tested: 90 nM)
OD 405 nm (TtSlyDcys-Her3): 3.5 OD
binding result [1]: no binding
binding result [2]: no binding
binding result [3]: no binding
B2: anti-HER3 antibody M-43-01 (antibody, V domains shown)
VH: EVQLQQSGTVLARPGASVKMSCKASDYTFSNYWVHWVKQRPGQGLEWIGAIYPGNGDSTYYQKFKGKATLTAVTSTSTAYMDLSSLTNGDSAVYFCTRSGVGYNYYFDYWGQGTTLTVSS
VL: B1 VL with A50I, R74K, F83L, K107E
notes: mouse hybridoma clone

binding result [2]: no binding
binding result [3]: no binding
B3: anti-HER3 antibody M-08-11 (antibody, V domains shown)
VH: QAYLQQSGAELMRPGASVRMSCQASGYTFTSYTIHWLKQTPRQGLEWIGAIYPRNGDFSYNQKFKDKASLTVDTSSSTAYMHLSSLTSEDSAVYFCARTINYGDWFAYWGQGTLVTVSA
VL: DIQMIQSPASLFVSEGETVIITCRASENIYSNLAWYHQKKGKSPQVLVYAAIKLADGVPLRFSGSGSGTQFSLKINSLQSEDFGSYYCQHFWGPPYTFGSGTNLEIK
notes: mouse monoclonal antibody from hybridoma, tested as hybridoma supernatant or as antibody; also called M-011

binding result (TtSlyD-Wildtype): no binding
binding result [4]: no binding (tested: 450 nM)
binding result [5]: no binding (tested: 90 nM)
binding result [1]: no binding
binding result [2]: no binding
binding result [3]: no binding
B4: anti-HER3 antibody M-46-01 (antibody, V domains shown)
VH: QIQLQQSGPQLVRPGASVKISCKASGYSFTSYWMHWVKQRPGRGLEWIGMIDPSDGVTRLNQKFKDKATLTVDNSSSTAYMQLSSPTSEDSAVHYCARVDVLYWYFDVWGAGTTVTVSS
VL: DIVLTQSPASLAVSLGQRATISCRASKSISISGYSYMHWYQQKAGQPPKLLIYLTSNLESGVPARFSGSGSGTDFTLNIHPVEEEDAATYYCHHSRELPFTFGSGTKLEIK
notes: mouse hybridoma clone
